Source: publication PMC3103433 (2011)

Tests used:
[1] = target: VAMP2 (UniProt P63044); test: GST pull-down, anti-Munc18c and anti-pTyr blots; conditions: reference: Munc18c incubated without CIRK; sites Y521
[2] = target: Syntaxin 4 (Sx4) cytosolic domain, 1-273 (UniProt P70452); test: GST pull-down, anti-Munc18c and anti-pTyr blots; conditions: reference: Munc18c incubated without CIRK; sites Y521
[3] = target: CIRK-treated Munc18c; test: GST pull-down, anti-Munc18c immunoblot quantification; conditions: 1 μg GST fusion on glutathione-Sepharose, 1 μg Munc18c pre-treated with 370 ng CIRK for 150 min, binding buffer, overnight, 4°C, n=3, read off a plot, scale: % of control Munc18c bound to wild-type Sx4

Sequence of Sx4-GST, wild-type Syntaxin 4 cytosolic domain (residues 1-273) (P70452 whole entry L173A/E174A, looked up, the tested form may be a part): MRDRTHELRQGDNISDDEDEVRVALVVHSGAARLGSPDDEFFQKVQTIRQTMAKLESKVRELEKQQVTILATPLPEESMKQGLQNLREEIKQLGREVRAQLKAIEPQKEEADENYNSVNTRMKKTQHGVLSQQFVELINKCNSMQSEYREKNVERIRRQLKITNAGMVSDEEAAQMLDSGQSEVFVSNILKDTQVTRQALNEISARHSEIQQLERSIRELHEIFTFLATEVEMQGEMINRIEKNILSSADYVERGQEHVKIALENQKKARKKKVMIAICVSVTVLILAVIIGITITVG
Sequence of Sx4 lacking the N-terminal 36 amino acids (N36Δ), GST fusion (P70452 whole entry, looked up, stated change not applied, the tested form may be a part): as the sequence (P70452 whole entry L173A/E174A, looked up, the tested form may be a part) above, with A173L, A174E counted along it

Munc18c (from UniProt Q60770) CIRK-treated Munc18c (pTyr form absent from pull-down)
binding against the reference [1]: weaker

Munc18c (from UniProt Q60770) Munc18c pre-treated with CIRK
other: percent decrease [2]: 30%

Sx4 lacking the N-terminal 36 amino acids (N36Δ), GST fusion (from UniProt P70452) L173A; E174A
other: % Munc18c bound relative to wild-type Sx4 ([3]; parent: est. 9): 10

Sx4-GST, wild-type Syntaxin 4 cytosolic domain (residues 1-273) (from UniProt P70452) L173A; E174A
other: % Munc18c bound relative to wild-type Sx4 ([3]; parent: est. 71): 64
